# Source: US6294648A, “Protein having proteinase inhibitor activity” (Bayer Corporation, priority 1999, dated 2001)
# “Also recorded” adds a separate entry of the source. Read-outs that look alike come from different tables or passages of the source.
# What was measured:
# plasma kallikrein = plasma kallikrein (Homo sapiens, UniProt P03952); conditions: cited from earlier work
# cathepsin G = target: T1, cathepsin G (Homo sapiens, UniProt P08311); conditions: cited from earlier work
# T1 sequence (P08311 21-255): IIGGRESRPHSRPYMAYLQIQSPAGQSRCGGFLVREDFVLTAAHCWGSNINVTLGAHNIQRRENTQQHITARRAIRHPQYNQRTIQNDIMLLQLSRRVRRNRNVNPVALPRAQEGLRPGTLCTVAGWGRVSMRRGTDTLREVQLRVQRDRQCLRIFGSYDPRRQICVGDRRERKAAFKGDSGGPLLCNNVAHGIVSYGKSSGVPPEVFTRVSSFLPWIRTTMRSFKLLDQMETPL
# proteinase 3 = target: T2, proteinase 3 (Homo sapiens, UniProt P24158); conditions: cited from earlier work
# T2 sequence (P24158 28-256): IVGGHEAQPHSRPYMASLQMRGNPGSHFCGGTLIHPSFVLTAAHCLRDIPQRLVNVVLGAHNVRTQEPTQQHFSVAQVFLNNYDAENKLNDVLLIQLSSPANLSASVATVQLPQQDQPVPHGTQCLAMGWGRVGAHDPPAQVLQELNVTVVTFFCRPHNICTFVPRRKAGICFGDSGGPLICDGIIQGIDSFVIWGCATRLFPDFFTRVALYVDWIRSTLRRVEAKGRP
# [1] = tested on: neutrophil-induced ECM solubilization; conditions: cited from earlier work
# [2] = target: T3, human neutrophil elastase (Homo sapiens, UniProt P08246); experiment: Determination of equilibrium dissociation constants, neutrophil elastase; format: biochemical
# T3 construct: purchased Athens Research and Technology, Inc. (Athens, Ga.)
# T3 sequence (P08246 30-267): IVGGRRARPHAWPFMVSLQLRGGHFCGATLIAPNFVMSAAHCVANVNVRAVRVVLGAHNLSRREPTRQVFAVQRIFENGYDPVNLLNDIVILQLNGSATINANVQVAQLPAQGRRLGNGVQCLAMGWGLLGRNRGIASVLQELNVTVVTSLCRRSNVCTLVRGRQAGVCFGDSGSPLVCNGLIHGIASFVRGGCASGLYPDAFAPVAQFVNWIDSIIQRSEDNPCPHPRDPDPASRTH
# Method: (§1) The BTL.009 concentration was determined by amino acid analysis. The concentration of human neutrophil elastase, cathepsin G, and proteinase 3 were based on the manufacturer's specifications. […] Hydrolysis of AMC-conjugated peptides was monitored on a Hitachi model F4500 fluorometer (excitation=370 nm, emission=432 nm) over the first 2 minutes of the reaction. Ki* values were determined from plots of fractional rate versus inhibitor concentration, which were fit by nonlinear regression analysis (Enzifitter™ by Bio soft, Cambridge UK) as described (44). Ki values were obtained by correction for the effect of substrate as described (44).
# [3] = target: T4, human neutrophil cathepsin G (Homo sapiens, UniProt P08311); experiment: Determination of equilibrium dissociation constants, cathepsin G; format: biochemical
# T4 construct: purchased Athens Research and Technology, Inc. (Athens, Ga.)
# T4 sequence (P08311 21-255): T1 sequence (P08311 21-255)
# Method: as §1
# [4] = target: T5, human neutrophil proteinase 3 (Homo sapiens, UniProt P24158); experiment: Determination of equilibrium dissociation constants, proteinase 3; format: biochemical
# T5 construct: purchased Athens Research and Technology, Inc. (Athens, Ga.)
# T5 sequence (P24158 28-256): T2 sequence (P24158 28-256)
# Method: as §1
# Bovine chymotrypsin = target: T6, Bovine chymotrypsin (Bos taurus, UniProt P00766); experiment: Chymotrypsin assay to monitor protein folding; format: biochemical
# T6 construct: purchased Sigma (St. Louis, Mo.)
# Method: To identify the properly folded form from reverse phase purification, the inhibition of chymotrypsin was measured. Chymotrypsin (20 nM) was incubated with refolded BTL.009 reverse phase fractions (0.04 absorbance units at 280 nm) in 100 μl of 50 MM Hepes (pH 7.5), 0.15 M NaCl, 2.0 mM CaCl2, and 0.01% Triton X-100 (buffer A) at 37° C. After 30 minutes, Suc-AAPF-pNa (100 μM final concentration) was added, after which the residual enzymatic formation of pNa was monitored at 410 nm.
# trypsin [5] = experiment: Inhibitory activity of BTL.009 towards trypsin / trypsin-like proteinases; format: biochemical
# chymotrypsin = conditions: cited from earlier work; for Ki: read-out: Ki, chymotrypsin
# leukocyte elastase = target: T7, leukocyte elastase (Homo sapiens, UniProt P08246); conditions: cited from earlier work
# T7 sequence (P08246 30-267): T3 sequence (P08246 30-267)
# platelets = conditions: cited from earlier work
# thrombin = thrombin (Homo sapiens, UniProt P00734); conditions: cited from earlier work
# trypsin [6] = target: T8, trypsin (Bos taurus, UniProt P00760); conditions: cited from earlier work
# T8 construct: gene PRSS1
# T8 sequence (P00760 24-246): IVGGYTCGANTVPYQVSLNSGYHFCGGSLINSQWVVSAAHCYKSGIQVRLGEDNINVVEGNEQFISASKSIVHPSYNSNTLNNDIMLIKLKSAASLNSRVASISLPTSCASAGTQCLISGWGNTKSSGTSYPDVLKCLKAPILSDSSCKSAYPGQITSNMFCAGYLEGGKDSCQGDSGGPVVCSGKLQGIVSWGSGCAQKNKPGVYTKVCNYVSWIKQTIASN
# [7] = read-out: Ki, leukocyte elastase
# Sequence of plasma kallikrein (P03952 20-638, species assumed): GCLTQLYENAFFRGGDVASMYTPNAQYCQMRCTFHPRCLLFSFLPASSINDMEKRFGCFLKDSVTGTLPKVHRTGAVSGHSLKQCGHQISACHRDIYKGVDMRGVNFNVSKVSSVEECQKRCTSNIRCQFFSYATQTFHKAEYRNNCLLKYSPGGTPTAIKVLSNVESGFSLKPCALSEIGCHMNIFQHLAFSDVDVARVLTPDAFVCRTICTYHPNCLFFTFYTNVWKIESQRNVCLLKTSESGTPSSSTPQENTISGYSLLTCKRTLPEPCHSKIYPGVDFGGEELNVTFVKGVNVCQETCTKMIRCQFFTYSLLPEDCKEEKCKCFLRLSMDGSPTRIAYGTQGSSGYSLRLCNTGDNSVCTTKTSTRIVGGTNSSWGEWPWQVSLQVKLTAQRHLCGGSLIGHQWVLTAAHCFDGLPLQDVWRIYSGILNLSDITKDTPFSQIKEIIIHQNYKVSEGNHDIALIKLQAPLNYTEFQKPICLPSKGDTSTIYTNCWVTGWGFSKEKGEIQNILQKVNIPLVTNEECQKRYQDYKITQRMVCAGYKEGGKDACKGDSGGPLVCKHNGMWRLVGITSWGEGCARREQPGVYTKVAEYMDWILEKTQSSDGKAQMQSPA
substance,measurement,setting,value
"APP KD variant (T11D, P13H, M17A, 118H, S19P and F34Y): phage display / consensus mutant APP KD differing at 6 key residues; plasma kallikrein inhibitor",Ki,plasma kallikrein,~0.015 nM
same,increase in binding affinity to plasma kallikrein compared to wild-type APP KD,plasma kallikrein,"more than 10,000 fold"
Alpha 1-proteinase inhibitor: a serpin family serine proteinase inhibitor; major serum inhibitor of elastase and cathepsin G,"inhibition of cathepsin G, in words",cathepsin G,potent inhibitor
same,"inhibition of cathepsin G, in words",cathepsin G; listed as Alpha-1-proteinase,inhibit
same,"inhibition of proteinase 3, in words",proteinase 3,inhibit
same,inhibition of neutrophil-induced ECM solubilization,[1],completely or nearly completely inhibit
"BTL.009: synthetic, refolded peptide corresponding to the EST-derived human Kunitz domain KQDVCEMPKETGPCLAYFLHWWYDKKDNTCSMFVYGGCQGNNNNFQSKANCLNTC (SEQ ID NO:1)","inhibition of leukocyte elastase, in words",[2],strong inhibitor; also recorded: elastase inhibitor
same,"inhibition of cathepsin G, in words",[3],weak inhibitor
same,"inhibition of proteinase 3, in words",[4],moderate inhibitor
same,preference for chymotrypsin-like over trypsin-like proteases,Bovine chymotrypsin,inhibit preferentially chymotrypsin-like proteases over trypsin-like proteases
same,inhibitory activity towards trypsin compared with neutrophil neutral serine proteinase,trypsin [5],significantly greater inhibitory activity towards a neutral serine proteinase secreted by neutrophils than towards trypsin
same,expected activity towards trypsin-like proteinases,"trypsin [5]; expected, not tested",little activity towards all trypsin-like proteinases
"TFPI: Tissue factor pathway inhibitor, another member of the Kunitz family",Ki,chymotrypsin,0.75 nM
same,Ki,leukocyte elastase; [7],400 nM
same,Ki,cathepsin G,100 to 200 nM
Tannin,"inhibition of leukocyte elastase, in words",leukocyte elastase,specifically inhibits leukocyte elastase in an irreversible manner
Thrombospondin 1: inactivates cathepsin G by binding near the enzyme's active site,"inhibition of cathepsin G, in words",cathepsin G,inactivates cathepsin G
same,cathepsin G-mediated platelet aggregation,platelets,blocked
alpha 1-proteinase inhibitor [Arg358]: alpha 1-proteinase inhibitor P1 variant,"inhibition of leukocyte elastase, in words",leukocyte elastase,not of leukocyte elastase
same,"inhibition of trypsin-like molecules such as thrombin, in words",thrombin,potent inhibitor
alpha-2-macroglobulin: member of the serpin proteinase inhibitor family (as stated),"inhibition of leukocyte elastase, in words",leukocyte elastase,inhibit
same,"inhibition of cathepsin G, in words",cathepsin G,inhibit
same,"inhibition of proteinase 3, in words",proteinase 3,inhibit
aprotinin,Ki,trypsin [6],0.02 nM
same,Ki,chymotrypsin,1.3 nM
same,"inhibition of leukocyte elastase, in words",leukocyte elastase,does not inhibit
"double mutant hPSTI variant: hPSTI with P1 lysine to leucine and P'1 isoleucine to glutamate (DSLGREAKCYNELNGCTLEYDPVCGTDGNTYPNECVLCFENRKRQTSILIQKSGPC; UniProt P00995 24-79, looked up, variant K18L I19E)",Ki,chymotrypsin,0.024 nM
same,Ki,leukocyte elastase; [7],0.037 nM
"elafin: member of the mucous proteinase inhibitor family (AQEPVKGPVSTKPGSCPIILIRCAMLNPPNRCLKDTDCPGIKKCCEGSCGMACFVPQ; Elafin; UniProt P19957 61-117, looked up)",Ki,"leukocyte elastase; read-out: Ki, elastase",0.6 nM
same,"inhibition of cathepsin G, in words",cathepsin G,not
same,"inhibition of proteinase 3, in words",proteinase 3,not proteinase 3
"hPSTI: a member of the Kazal serine proteinase family (DSLGREAKCYNELNGCTKIYDPVCGTDGNTYPNECVLCFENRKRQTSILIQKSGPC; UniProt P00995 24-79, looked up)","inhibition of trypsin, in words",trypsin [6],potent inhibitor
same,"inhibition of chymotrypsin, in words",chymotrypsin,completely inactive
same,"inhibition of leukocyte elastase, in words",leukocyte elastase,completely inactive
"single mutant hPSTI variant: hPSTI with P1 residue lysine substituted with leucine (DSLGREAKCYNELNGCTLIYDPVCGTDGNTYPNECVLCFENRKRQTSILIQKSGPC; UniProt P00995 24-79, looked up, variant K18L)","inhibition of trypsin, in words",trypsin [6],inactive
same,Ki,chymotrypsin,8 nM
same,Ki,leukocyte elastase; [7],0.025 nM
